Source: the supplement of paper PMC12764529
± gives the half width of the 95% confidence interval.

What was measured:
[1] = folding stability dG unfold from chymotrypsin proteolysis; higher = more stable
In short: (§1)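 Designed mini-proteins (under 80 residues, no cysteine) in a PA-tagged cDNA display construct were digested with trypsin and chymotrypsin. Each protease was used at 11 concentrations (threefold dilutions) plus a no-protease condition, followed by sequencing. K50 was inferred by Bayesian fitting of sequencing counts, and unfolding free energy was derived against a sequence-predicted unfolded-state K50 and a shared folded-state K50, per protease or combined. Only designs with AlphaFold2 dimer inter-PAE above 15 were kept.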

[2] = folding stability dG unfold (combined trypsin and chymotrypsin); higher = more stable
In short: as §1

[3] = folding stability dG unfold from trypsin proteolysis; higher = more stable
In short: as §1

| Sequence | folding stability dG unfold [1] | folding stability dG unfold [2] | folding stability dG unfold [3] |
| --- | --- | --- | --- |
| SMVEIKVEKKEDGTVKITIVAPLEKAEEIAKKLAEELGKEVKIVKIEKKKVKVNGEERELVKIEIEIRLPSA [r9_431_TrROS_Hall] | 2.23 ± 0.31 kcal/mol | 2.24 ± 0.78 kcal/mol | 2.86 ± 0.28 kcal/mol |
| SMVEIKVEPEKSIIKATLTLKDKTVEEIKQLAKEYFEKLGYKIKVEVKEVKTFEDSVTLKFEIKVPKGLVSA [r9_347_JUSTAS] | 2.27 ± 0.11 kcal/mol | 2.45 ± 0.26 kcal/mol | 1.94 ± 0.1 kcal/mol |
| SMVELKITVKTPEELKKLEEAFKELGVEEVTIERKEDGTVTITVTFKESEEELEERVREALEELGFEVEPSA [r9_1003_TrROS_Hall] | 2.82 ± 0.23 kcal/mol | 3.18 ± 0.22 kcal/mol | 3.33 ± 0.18 kcal/mol |
| SMVIEINEDGTVKVYLPEELKGLSAEEIEELIKKLFGPNVKIEKIEIFEPPPKLTEEEKEELKKLPKEEKSA [r9_1011_TrROS_Hall] | 1.76 ± 0.14 kcal/mol | 1.41 ± 0.33 kcal/mol | 0.866 ± 0.17 kcal/mol |
| SMVKVEIEEENGEKTIRIVNEETGVVVEIKFPEGEEVIEVPSVEELVEELKELGENIEITKIEPLSEEELSA [r9_1102_TrROS_Hall] | 0.497 ± 0.084 kcal/mol | 0.661 ± 0.25 kcal/mol | 0.425 ± 0.14 kcal/mol |
| SMVQGTVLPPNGQRLTFEFDPAGTAQERAEQVRALLEALLPPDLKIEVERVEPDRPISADEPGTVLARADSA [r9_178_TrMRF] | 0.0574 ± 0.19 kcal/mol | -0.248 ± 0.28 kcal/mol | -0.914 ± 0.56 kcal/mol |
| SMVRITVYRNGKELSEEELRELAAELERETGRRITVEELARRLAARPGLTVRIEVFNEDGELVEERELRVSA [r9_1045_TrROS_Hall] | 5.14 ± 0.11 kcal/mol | 4.71 ± 0.076 kcal/mol | 3.42 ± 0.058 kcal/mol |
| SMVTSETRETVTVTLPDGTVVTVTVTTHRPADGVPTATVTVTTTSADGTPTTSTHTFPAAEAPALIAAALSA [r9_189_JUSTAS] | 1.96 ± 0.044 kcal/mol | 2.35 ± 0.086 kcal/mol | 2.84 ± 0.13 kcal/mol |
| SMVTVEEYEEDDEYYVKVYDPEKGVGVVFKTKDGVFKMPVTDPEALKEAIKASGIDVEIVEVRPLGPGLVSA [r9_1102_JUSTAS] | 0.581 ± 0.1 kcal/mol | 0.492 ± 0.083 kcal/mol | 0.357 ± 0.036 kcal/mol |
| SMVVERDPDGVLRVYASPEEAERIVAELKAAGLDARVEAFDPETGVWVIPVRPVPPAGLEPTPENQALNRVS [r1_78_JUSTAS] | 1.23 ± 0.073 kcal/mol | 0.962 ± 0.071 kcal/mol | 0.502 ± 0.029 kcal/mol |
| SMVVIEFETKKPKEQAEKAVEKAKKEIPELEEVLEIEVEEFPDFLKVKIVLKGGKITPEDLEKLKEFLEKSA [r9_195_TrMRF] | 2.4 ± 0.071 kcal/mol | 2.63 ± 0.27 kcal/mol | 2.67 ± 0.27 kcal/mol |
| SMVVVKVTASSPEEAEALAKEAEEKLKEEIEKKIKELKKKGINPKELNLNIKIEIETLSYDPANPGKNTPSA [r9_961_JUSTAS] | 0.998 ± 0.066 kcal/mol | 0.827 ± 0.13 kcal/mol | 0.484 ± 0.039 kcal/mol |
| SMYDIVITVPSPEDVKALEEAFKELGVEEIEVERLPEERYRIVIKTKGSVEEIVEAIRKIAEENGLEIEPSA [r9_1003_TrMRF] | 3.89 ± 0.19 kcal/mol | 3.75 ± 0.19 kcal/mol | 3.36 ± 0.18 kcal/mol |
| SMYRIRLPSNKVFTIDVPPDGTVEITLPNGKKLTLKLESEEDILALAEILSKLFPDDPAEIEPIPLEYYRSA [r9_1206_TrMRF] | 1.53 ± 0.19 kcal/mol | 1.4 ± 0.092 kcal/mol | 1.24 ± 0.042 kcal/mol |
| SMYRIRVKIKIKNPKTGKVIELPELEGMSLEEVLEIAKELKEKFPGAEVEVEIVEVEPLPPLTEEQLKKLSA [r9_421_TrROS_Hall] | 2.33 ± 0.083 kcal/mol | 2.11 ± 0.073 kcal/mol | 1.91 ± 0.069 kcal/mol |
| SMYTADFILPDEVLKTVPLEGKSVEEALEKVKEIVKQLPPNTPLLVKISYTEVDPKTGTTRTGTITVPLKSA [r9_245_JUSTAS] | 2.39 ± 0.044 kcal/mol | 2.2 ± 0.19 kcal/mol | 2.06 ± 0.065 kcal/mol |
| SMYYYGKFTFTNPTGGPTIGDVYIITKSKEEAEALAKEEASKKNVKVEIEIKEIPESEYENPEKVKELLSSA [r9_864_JUSTAS] | 1.02 ± 0.19 kcal/mol | 0.788 ± 0.37 kcal/mol | 0.285 ± 0.2 kcal/mol |
| SNIKNIKRVEIYYNPENGWMPKIKVEYPGGEREFMFPPDQAEELLNWLQQKGLPMKITDVEYHPMPPDQMSA [r9_607_TrROS] | 1.49 ± 0.048 kcal/mol | 1.27 ± 0.18 kcal/mol | 0.911 ± 0.086 kcal/mol |

| Sequence | folding stability dG unfold [1] | folding stability dG unfold [2] | folding stability dG unfold [3] |
| --- | --- | --- | --- |
| SNPENIDKITFTFRWPDGNPMEIEIDPDGTVEYEYPNGWEIEITIDPDDGKLTIEMTFPNGRPQEQKIPISA [r9_99_TrROS] | 2.85 ± 0.097 kcal/mol | 2.94 ± 0.38 kcal/mol | 1.86 ± 0.12 kcal/mol |
| SNYINEPIYVPPSVDPEEVKKKVEERVEEIKKKLGLPPNISVSVTPVALPEGSVTYRVTVTVDGETYNSSSA [r9_776_JUSTAS] | 0.488 ± 0.17 kcal/mol | 0.683 ± 0.15 kcal/mol | 0.77 ± 0.1 kcal/mol |
| SPAAELARRLFEELGLEAELVSVDPERRRVTFRVRHPDRAPLLLEVVYDPERPVFAIALNPETGRAVVPVSA [r9_1119_TrMRF] | 3.11 ± 0.036 kcal/mol | 2.73 ± 0.1 kcal/mol | 1.8 ± 0.039 kcal/mol |
| SPDIEIEPMPNGSYMIEVPVPPDAESIEVPFPGNGRPVTIHRDPDKIHIFFNNPEQIEEIAEAIADGKPISA [r9_515_TrROS] | 0.2 ± 0.21 kcal/mol | 0.15 ± 0.15 kcal/mol | 0.0692 ± 0.047 kcal/mol |
| SPESIEVQISKSSSTSPSGGSEEIYTVTVTYPATGKTLTKNFTATLNPDGTTNPNGSPEELAAKLAAELLAS [r1_77_JUSTAS] | 2.23 ± 0.026 kcal/mol | 2 ± 0.1 kcal/mol | 1.37 ± 0.079 kcal/mol |
| SPKIHIFIKGSIEEAVDFIRKFFPGLPIHVFDDPEQAEERAKNGDIVIAIGDEEYANRYAKKYNVPVIYISA [r9_380_TrROS] | 3.338 ± 0.018 kcal/mol | 3.12 ± 0.053 kcal/mol | 2.52 ± 0.062 kcal/mol |
| SPKITIDVETNKNGRGYIRFKFNGREREIRIPSNMTPEGAKEKARDIANTLQKRYQENGRPLKIEEIEIYSA [r9_751_TrROS] | 1.47 ± 0.13 kcal/mol | 1.36 ± 0.17 kcal/mol | 1.49 ± 0.089 kcal/mol |
| SPNWKIVEITEMERTDGRVTIKIKIKVPDGRIYIFMPNGKIIEEVPLGDDVELTITFPPNNWPIYIFVLDSA [r9_917_TrROS] | 4.69 ± 0.19 kcal/mol | 4.48 ± 0.18 kcal/mol | 3.47 ± 0.093 kcal/mol |
| SPPETETYPIPNPEDGKPLMDITIERNPENGNWKVEIYWPGGKKKEVEFPPNETIPIDDLPPGFWVTITRSA [r9_1150_TrROS] | 1.56 ± 0.069 kcal/mol | 1.21 ± 0.16 kcal/mol | 0.532 ± 0.12 kcal/mol |
| SPPGWKVIPITLKFRAPIKSVEEAKSQVREIAREIANRHGFPIQVNVTVEYDPEDGWVKVEVPISIWVPKSA [r9_741_TrROS] | 3.234 ± 0.022 kcal/mol | 2.97 ± 0.09 kcal/mol | 2.75 ± 0.081 kcal/mol |
| SPSADAKVRVEPLPGPGYLATLEDGSLVLVHPDGTVIEVTETKVRIRVFTPDKPLLELEIEIPPPAPDEPSA [r9_901_TrMRF] | 1.26 ± 0.066 kcal/mol | 1.18 ± 0.16 kcal/mol | 0.803 ± 0.095 kcal/mol |
| SPVTVTITLPNGETITLTFPAGMTAEELKAAVLAELKRLLPPGAKIEVVDIEVTEVVAPGETVTVTVRLTSA [r9_178_TrROS_Hall] | 4.61 ± 0.15 kcal/mol | 4.16 ± 0.11 kcal/mol | 3.36 ± 0.13 kcal/mol |
| SPYFMFPIDDIKVEKERDPDDGKKTYEMRVEGPNGNPFRIEFNPKDGMIHIEFPPGMKLRPGDTFELTIRSA [r9_509_TrROS] | 1.59 ± 0.2 kcal/mol | 1.85 ± 0.21 kcal/mol | 2.09 ± 0.088 kcal/mol |
| SQTIRLELKNPDGRKIRIEIPVQRNPGNGYYYVSVKIEYYDPNGKPKERPITAPFNSPEDAEDQAREALRSA [r9_337_TrROS] | 2.06 ± 0.16 kcal/mol | 1.69 ± 0.28 kcal/mol | 1.63 ± 0.12 kcal/mol |
| SRIKITVKPKPDGNFYIKIWFPNNGKPFIFPIKNPDAMDEARDDPGQTIEVPEDYLRSLFPDNFTDVEIVSA [r9_390_TrROS] | 1.16 ± 0.12 kcal/mol | 1.25 ± 0.064 kcal/mol | 1.31 ± 0.015 kcal/mol |
| SSATVTFTVELPDDSVIVSVRIDAEEYDPGPPWVRVTIEVEIYDKNGELLATLRFEFLLPREVLEELRKSSA [r9_234_TrMRF] | 5.74 ± 0.3 kcal/mol | 5.77 ± 0.66 kcal/mol | 4.23 ± 0.14 kcal/mol |
| SSDIKIEIDIERNDDGYLTFTIEIRHPDPQQLVDAAKEIILELFPPGVNIDVEPHPDGWVKAPIMFPLPKSA [r9_646_TrROS] | 1.63 ± 0.086 kcal/mol | 1.35 ± 0.25 kcal/mol | 0.735 ± 0.13 kcal/mol |
| SSEKEVEVTIKIPLYYERPDGTIEEYDIEIKVKVKIDNGGFIAENLEEAIREVLEKLNIPEGHPDAPYFNKS [r1_175_TrMRF] | 0.155 ± 0.48 kcal/mol | 1.02 ± 0.33 kcal/mol | 1.72 ± 0.19 kcal/mol |
